# Results: patent US7071384B2, “Methods for commercial production of heterologous laccase in plant tissue and extraction of the laccase from plant seed” (Genencor International, Inc., priority 1997, dated 2006)
# What was measured:
# [1] = Large-scale custom milling of transgenic corn, rGUS activity retention; format: physicochemical; details: 1,000 kg corn milled, less than 1 min at 90° C., bagged at about 50° C., 2 h at 30° C., overnight at 10° C.
# Description: The heat stability results obtained in the laboratory were validated on a large scale. During the processing of 1,000 kg of transgenic corn in a custom-milling plant located in Grinnell, Iowa, the corn was exposed for a short time (less than 1 min) to 90° C. The milled corn was bagged at approximately 50° C., transported at ambient temperature (30° C.) for two hours to Iowa State University, and then stored overnight at 10° C. before the rGUS activity was determined.
# [2] = rGUS activity after extraction treatments (hexane defatting; SDS/ME buffer); format: physicochemical
# Description: A portion of the germ sample prepared by the degermination process was defatted by using a Soxhlet apparatus. Forty grams of full-fat germ were extracted with 300 ml of hexane for five hours, and then air-dried at ambient temperature to remove the hexane.
# All samples (flaked kernels, full-fat germ and defatted germ) were ground using a coffee grinder before protein extraction. The samples were extracted at 1:4 or 1:10 solid-to-liquid ratio with 50 mM NaPi buffer of pH 7.5. The extraction was carried out for 15 minutes at ambient temperature by using a magnetic stirrer for mixing less than 50-ml and a paddle mixer for greater than 50-ml volumes. After stirring, the suspension was centrifuged at 26,000 g for 25 min at 0° C., and then filtered through a 4-layer of cheesecloth. The extract was assayed for GUS activity (Hood et al., supra) and protein (Jefferson, R. A.; Wilson, K. J. (1991). In The GUS Gene Fusion system. In “Plant Molecular Biology Manual”, Vol. 1, B14, (S. B. Gelven, R. A. Schilperoort and D. P. S. Verma, eds.). Kluwer Academic Publisher, Dordrecht, Belgium. pp.1–33).
# To determine whether a complete extraction of rGUS from corn kernels, full-fat germ and defatted germ was achieved, the remaining solids were stained with X-Gluc. […] The Western blot analysis of the spent solids confirmed the presence of unextracted rGUS. […]
# [3] = Heat stability of rGUS in whole corn kernels; format: physicochemical
# [4] = Storage stability of rGUS in flaked corn kernels; format: physicochemical
# Description: Dry corn kernels (12% moisture, 500 g per batch) were cracked using a roller mill (Ferrel-Ross, Oklahoma City, Okla.), then flaked to 0.3 mm thickness using Roskamp flaking rolls (Model K, Roskamp Mfg., Inc., Waterloo, Iowa.). Seven 500-gram batches of flaked corn kernels were placed in zip-lock bags and stored at each of four different temperatures for up to 95 days. The storage stability study was performed in triplicate; three 50-g samples per time and per temperature. To determine the activity of GUS, a 20-g sample was taken from each of the three 50-g bags at the specified time and extracted with 200 ml of 20 mM Tris-HCl pH 7.9 containing 500 mM NaCl and 1 mM CaCl2. Extraction was carried out using a paddle mixer at ambient temperature for 30 min.
# [5] = rGUS specific activity after three-step chromatography purification; format: biochemical
# From the text: Distribution of rGUS in the Corn Kernel Tissue Corn kernels (100 g) were soaked in deionized water for two days. In two days separation of germ, hull and endosperm was completed and soaked for 2–3 days. The first half was soaked for 2 days, and the other half for 3 days. The hulls, endosperm, and germ were manually separated. Each fraction was air-dried at ambient temperature and ground with a coffee grinder (Salton/Maxim Housewares Inc., Mont. Prospect,Ill.). rGUS activity and the moisture content of each ground sample were determined. rGUS activity was determined using the assay described by Jefferson and Wilson (Jefferson, R. A.; Wilson, K. J. (1991). In The GUS Gene Fusion system. In “Plant Molecular Biology Manual”, Vol. 1, B14, (S. B. Gelven, R. A. Schilperoort and D. P. S. Verma, eds.). Kluwer Academic Publisher, Dordrecht, Belgium. pp.1–33). One unit (U) of rGUS activity was defined as the amount of enzyme that converts one nmole of p-nitrophenyl β-D-glucuronide per minute at pH 7.0 and 37° C. Storage and Heat Stability
# Purification Recombinant GUS was purified from ground kernels, full-fat germ and defatted germ using a three-step chromatography. Ground corn kernels (75 g), full-fat germ (7.5 g), and defatted germ (7.5 g) samples were extracted with 50 mM NaPi buffer pH 7.5 (buffer A) at 1:4 or 1:10 solid-to-liquid ratio as described in the previous section. Fifteen ml of DEAE-Toyopearl (Supelco, Bellefonte, Pa.) resin in buffer A were added to the centrifuged and filtered extract to adsorb (capture) rGUS. The slurry was mixed with a magnetic stirrer for 15 min at ambient temperature, filtered through a funnel-supported No. 1 filter paper, and washed with 400 ml of buffer A. The washed DEAE resin was packed into a glass column with an inside diameter of 1.5 cm. The adsorbed rGUS was eluted with 0.3 M NaCl in buffer A. The fractions containing rGUS activity were combined, ammoniumsufate (AS) was added to a final concentration of 1 M, and the solution was filtered through a 0.45 μfilter. […]
molecule,measurement,setting,value
rGUS: recombinant β-glucuronidase produced in transgenic corn kernels (protein) MLRPVETPTREIKKLDGLWAFSLDRENCGIDQRWWESALQESRAIAVPGSFNDQFADADIRNYAGNVWYQREVFIPKGWAGQRIVLRFDAVTHYGKVWVNNQEVMEHQGGYTPFEADVTPYVIAGKSVRITVCVNNELNWQTIPPGMVITDENGKKKQSYFHDFFNYAGIHRSVMLYTTPNTWVDDITVVTHVAQDCNHASVDWQVVANGDVSVELRDADQQVVATGQGTSGTLQVVNPHLWQPGEGYLYELCVTAKSQTECDIYPLRVGIRSVAVKGEQFLINHKPFYFTGFGRHEDADLRGKGFDNVLMVHDHALMDWIGANSYRTSHYPYAEEMLDWADEHGIVVIDETAAVGFNLSLGIGFEAGNKPKELYSEEAVNGETQQAHLQAIKELIARDKNHPSVVMWSIANEPDTRPQGAREYFAPLAEATRKLDPTRPITCVNVMFCDAHTDTISDLFDVLCLNRYYGWYVQSGDLETAEKVLEKELLAWQEKLHQPIIITEYGVDTLAGLHSMYTDMWSEEYQCAWLDMYHRVFDRVSAVVGEQVWNFADFATSQGILRVGGNKKGIFTRDRKPKSAAFLLQKRWTGMNFGEKPQQGGKQ,rGUS activity loss,[1],no loss of rGUS activity
same,rGUS activity after extraction with detergent,[2]; 1% (v/v) SDS and 2% (v/v) ME in extraction buffer,inactive
same,rGUS activity after corn oil extraction,[2]; germ defatted with hexane (˜60° C.),did not affect the activity of rGUS
same,rGUS activity after heating,"[3]; kernels, 50° C. for up to six days",fully retained
same,loss of initial rGUS activity,"[3]; kernels, 70° C. for 8 hours",60%
same,rGUS activity after heating,"[3]; kernels, 70° C. for one hour",did not significantly affect rGUS activity
same,residual rGUS activity,"[3]; kernels, 90° C. for one hour",No residual rGUS activity
same,residual rGUS activity,"[3]; kernels, 125° C. for 10 minutes",No residual rGUS activity
same,rGUS activity after heating,"[3]; whole kernels, 50° C. for up to eight hours",did not affect rGUS activity
same,loss of rGUS activity,[4]; flaked kernels at 10° C. for up to 3 months,23%
same,loss of initial GUS activity,[4]; flaked kernels at 25° C. after three weeks (sample spoilage),13%
same,loss of initial rGUS activity,[4]; flaked kernels at 37° C. for one week,23%
same,rGUS activity loss,"[4]; flaked kernels at −29, 10, or 25° C. for up to 2 weeks",no significant loss of rGUS activity
same,loss of rGUS activity,[4]; flaked kernels at −29° C. for up to 3 months,14%
same,Specification activity,"[5]; purified from defatted germ, solid-to-liquid ratio 1:10","36,000 U/mg"
same,Specification activity,"[5]; purified from flaked corn, solid-to-liquid ratio 1:4","36,000 U/mg"
same,Specification activity,"[5]; purified from full-fat germ, solid-to-liquid ratio 1:10","45,000 U/mg"
